In paper PMC9405932:

Target: BCAS1-SV1 (novel splice variant of BCAS1), full length, Gal4 fusion for yeast two-hybrid (human)
Sequence (O75363 whole entry, change not shown, the tested form may be a part, canonical isoform): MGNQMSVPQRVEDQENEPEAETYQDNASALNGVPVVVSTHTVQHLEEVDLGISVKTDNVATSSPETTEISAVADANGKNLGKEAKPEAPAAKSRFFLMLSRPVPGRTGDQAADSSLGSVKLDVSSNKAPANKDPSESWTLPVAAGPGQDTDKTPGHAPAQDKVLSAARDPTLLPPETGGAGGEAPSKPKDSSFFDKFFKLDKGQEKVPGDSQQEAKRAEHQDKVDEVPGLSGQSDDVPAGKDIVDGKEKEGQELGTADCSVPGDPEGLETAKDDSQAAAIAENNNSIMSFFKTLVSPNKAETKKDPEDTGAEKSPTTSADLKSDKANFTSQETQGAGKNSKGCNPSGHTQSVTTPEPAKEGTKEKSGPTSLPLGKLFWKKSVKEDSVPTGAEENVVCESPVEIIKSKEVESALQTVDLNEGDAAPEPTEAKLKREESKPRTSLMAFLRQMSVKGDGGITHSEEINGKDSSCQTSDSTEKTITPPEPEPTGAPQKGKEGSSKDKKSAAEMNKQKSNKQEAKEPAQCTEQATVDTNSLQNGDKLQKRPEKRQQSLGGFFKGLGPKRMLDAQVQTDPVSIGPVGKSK

decrease of migration of GBM8401 cells (scratch wound assay) by maackiain (MK), dose series up to 1 μM; MK is said to disrupt the pair: 67%
decrease of migration of M059K cells (scratch wound assay) by maackiain (MK), dose series up to 1 μM; MK is said to disrupt the pair: 70%
Substance: β-arrestin 2 (ARRB2), full length, Gal4 fusion for yeast two-hybrid (from UniProt P32121-1 1-409) (natural protein)
